Target: T1, His6-tagged Bd2492 (Bd2492-His6) expressed in E. coli from plasmid pD2492N/3734 (Bdellovibrio bacteriovorus HD100, UniProt Q6MKB3 1-353)
T1 construct: Bd2492, 353 amino acid TPR protein of Bdellovibrio bacteriovorus HD100; The label Bd2492-His6 hints at a C-terminal tag and the plasmid name pD2492N at an N-terminal one; also called TPRBd; source: E. coli, heterologously co-expressed with MglA from plasmid pD2492N/3734
T1 sequence (looked up): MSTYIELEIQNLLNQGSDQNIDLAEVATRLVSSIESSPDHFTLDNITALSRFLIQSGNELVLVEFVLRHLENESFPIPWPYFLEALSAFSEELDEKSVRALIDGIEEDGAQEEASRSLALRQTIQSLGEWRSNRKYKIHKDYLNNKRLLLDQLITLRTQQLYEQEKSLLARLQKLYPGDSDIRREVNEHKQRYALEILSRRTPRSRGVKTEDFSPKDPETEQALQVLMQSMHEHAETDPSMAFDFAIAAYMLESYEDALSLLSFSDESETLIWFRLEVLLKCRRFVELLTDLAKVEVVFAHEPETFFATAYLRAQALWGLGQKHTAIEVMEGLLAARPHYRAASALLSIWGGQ
Test: SEC; gel filtration and SDS-PAGE of purified MglA and Bd2492-His6; data not shown
Conditions: both partners purified

stoichiometry N: 1
B1: MglA (Bd3734) co-expressed in E. coli from plasmid pD2492N/3734 (natural protein, Bdellovibrio bacteriovorus HD100, UniProt Q6MH29 1-197, looked up)
chain: MSFINYNAKEIHCKVVYYGPSLGGKTTNIQWVYQKTAEDQKSKLVALNTDIERTLFFDFLPLNVGDIRGFKTRFHLYTVPGQVVYDASRKLILKGLDGVIFVADSQIERMDENLESLRNLERNLEQQGYDIREIPLIMQYNKRDLPNVASLAELRSALNPYNAPEIEGCASEGRGVFESLKTVSKSIINVLKGGTTL
notes: MglA (Bd3734) of Bdellovibrio bacteriovorus HD100; No tag is named on MglA in this construct; source: E. coli, heterologously co-expressed with Bd2492-His6 from plasmid pD2492N/3734
